Measured values from US20240091321A1.

Assays:
Insulin Receptor = test: SPR; data not shown
CI-MPR receptor [1] = test: CIMPR binding assay, PPT1 conditioned media, curves starting at 25 nM, bound PPT1 activity; the table prints no units, units of the axes
CI-MPR receptor [2] = test: CIMPR binding assay, PPT1 conditioned media, dilution starting at 50 nM, bound PPT1 activity; the table prints no units, units of the axes

Kd (Insulin Receptor) [nM] | Bmax (CI-MPR receptor [1]) [nmol/mL/h] | Kd (CI-MPR receptor [1]) [nM] | Bmax (CI-MPR receptor [2]) [nmol/mL/h] | Kd (CI-MPR receptor [2]) [nM] | Substance
8 |  |  |  |  | Insulin (from UniProt P01308 25-54; P01308 90-110) (ligand)
 | 54.5 | 2.71 | 54.4 | 2.7 | PPT1 control (enzyme)
